# From patent US20230056252A1 (Gilead, published 2023)
# Positions count from the first letter of the chain named.
# B1: huSP34.2.1 Fab-HF (Fab, V domains shown)
# VH: EVQLVESGGGLVQPGGSLRLSCAASGFTFSTYAMNWVRQAPGKGLEWVGRIRSKYNNYATYYAASVKGRFTISRDDSKNSLYLQMNSLKTEDTAMYYCVRHGNFGNSYVSWFAVWGQGTLVTVSS
# VL: QAVVTQEPSLTVSPGGTVTLTCRSSTGAVTTSNYANWVQQKPGQAPRGLIGGTNKRAPWTPARFSGSLIGDKAALTLSGAQPEDEAEYYCALWYSNLWVFGGGTKLTVL
# notes: also called HC2+LC1
# B2: huSP34.4.2 Fab-HF (Fab, V domains shown)
# VH: B1 VH with K89R, M95V, N106H
# VL: B1 VL with R23G, N54S, K55N, I69L, D71G
# notes: also called HC4+LC2
# B3: huSP34.6.5 Fab-HF (Fab, V domains shown)
# VH: B1 VH with A64D, D76N, S80T, K89R, T90A
# VL: B1 VL with R23G, S32G, N33H, N54S, K55N, I69L, D71G, N96A, L97R
# notes: also called HC6+LC5
# B4: huSP34.5.1 Fab-HF (Fab, V domains shown)
# VH: B1 VH with A64D, D76N, S80T, K89R, T90A, M95V, N106H
# VL: B1 VL
# notes: also called HC5+LC1
# B5: huSP34.5.5 Fab-HF (Fab, V domains shown)
# VH: B1 VH with A64D, D76N, S80T, K89R, T90A, M95V, N106H
# VL: B1 VL with R23G, S32G, N33H, N54S, K55N, I69L, D71G, N96A, L97R
# notes: also called HC5+LC5
# B6: huSP34.3.6 Fab-HF (Fab, V domains shown)
# VH: B1 VH with S30N, A64D, K89R, M95V, N106H, V114Y
# VL: QAVVTQPPSLTVSPGGTVTLTCGSSTGAVTTGHYANWVQQKPGQAPRGLIGGTSNRAPGVPARFSGSLSGGKAALTISGAQPEDEAEYYCALWYSARWVFGGGTKLTVL
# notes: also called HC3+LC6
# B7: huSP34.9.1 Fab-HF (Fab, V domains shown)
# VH: B1 VH with T31D, I51T, N57S, M95V
# VL: B1 VL
# notes: also called HC9+LC1
# B8: huSP34.7.1 Fab-HF (Fab, V domains shown)
# VH: B1 VH with T31D, I51T, M95V
# VL: B1 VL
# notes: also called HC7+LC1
# B9: huSP34.7.2 Fab-HF (Fab, V domains shown)
# VH: B1 VH with T31D, I51T, M95V
# VL: B1 VL with R23G, N54S, K55N, I69L, D71G
# notes: also called HC7+LC2
# B10: huSP34.8.4 Fab-HF (Fab, V domains shown)
# VH: B1 VH with T31D, I51T, M95V, N106H
# VL: B1 VL with R23G, N33H, N54S, I69L, D71G, N96A
# notes: also called HC8+LC4
# B11: huSP34.8.2 Fab-HF (Fab, V domains shown)
# VH: B1 VH with T31D, I51T, M95V, N106H
# VL: B1 VL with R23G, N54S, K55N, I69L, D71G
# notes: also called HC8+LC2
# B12: huSP34.2.6 Fab-HF (Fab, V domains shown)
# VH: B1 VH
# VL: B6 VL
# notes: also called HC2+LC6
# B13: huSP34.6.4 Fab-HF (Fab, V domains shown)
# VH: B1 VH with A64D, D76N, S80T, K89R, T90A
# VL: B1 VL with R23G, N33H, N54S, I69L, D71G, N96A
# notes: also called HC6+LC4
# B14: huSP34.7.4 Fab-HF (Fab, V domains shown)
# VH: B1 VH with T31D, I51T, M95V
# VL: B1 VL with R23G, N33H, N54S, I69L, D71G, N96A
# notes: also called HC7+LC4
# B15: huSP34.3.4 Fab-HF (Fab, V domains shown)
# VH: B1 VH with S30N, A64D, K89R, M95V, N106H, V114Y
# VL: B1 VL with R23G, N33H, N54S, I69L, D71G, N96A
# notes: also called HC3+LC4
# B16: huSP34.3.1 Fab-HF (Fab, V domains shown)
# VH: B1 VH with S30N, A64D, K89R, M95V, N106H, V114Y
# VL: B1 VL
# notes: also called HC3+LC1
# B17: huSP34.5.4 Fab-HF (Fab, V domains shown)
# VH: B1 VH with A64D, D76N, S80T, K89R, T90A, M95V, N106H
# VL: B1 VL with R23G, N33H, N54S, I69L, D71G, N96A
# notes: also called HC5+LC4
# B18: huSP34.4.1 Fab-HF (Fab, V domains shown)
# VH: B1 VH with K89R, M95V, N106H
# VL: B1 VL
# notes: also called HC4+LC1
# B19: huSP34.5.2 Fab-HF (Fab, V domains shown)
# VH: B1 VH with A64D, D76N, S80T, K89R, T90A, M95V, N106H
# VL: B1 VL with R23G, N54S, K55N, I69L, D71G
# notes: also called HC5+LC2
# B20: huSP34.9.2 Fab-HF (Fab, V domains shown)
# VH: B1 VH with T31D, I51T, N57S, M95V
# VL: B1 VL with R23G, N54S, K55N, I69L, D71G
# notes: also called HC9+LC2
# B21: huSP34.8.1 Fab-HF (Fab, V domains shown)
# VH: B1 VH with T31D, I51T, M95V, N106H
# VL: B1 VL
# notes: also called HC8+LC1
# B22: huSP34.3.5 Fab-HF (Fab, V domains shown)
# VH: B1 VH with S30N, A64D, K89R, M95V, N106H, V114Y
# VL: B6 VL with P7E, G59W, V60T, S69L, I77L
# notes: also called HC3+LC5
# B23: huSP34.2.5 Fab-HF (Fab, V domains shown)
# VH: B1 VH
# VL: B6 VL with P7E, G59W, V60T, S69L, I77L
# notes: also called HC2+LC5
# B24: huSP34.4.6 Fab-HF (Fab, V domains shown)
# VH: B1 VH with K89R, M95V, N106H
# VL: B6 VL
# notes: also called HC4+LC6
# B25: huSP34.6.2 Fab-HF (Fab, V domains shown)
# VH: B1 VH with A64D, D76N, S80T, K89R, T90A
# VL: B1 VL with R23G, N54S, K55N, I69L, D71G
# notes: also called HC6+LC2
# B26: huSP34.2.4 Fab-HF (Fab, V domains shown)
# VH: B1 VH
# VL: B1 VL with R23G, N33H, N54S, I69L, D71G, N96A
# notes: also called HC2+LC4
# B27: huSP34.8.6 Fab-HF (Fab, V domains shown)
# VH: B1 VH with T31D, I51T, M95V, N106H
# VL: B6 VL
# notes: also called HC8+LC6
# B28: huSP34.4.4 Fab-HF (Fab, V domains shown)
# VH: B1 VH with K89R, M95V, N106H
# VL: B1 VL with R23G, N33H, N54S, I69L, D71G, N96A
# notes: also called HC4+LC4
# B29: huSP34.2.2 Fab-HF (Fab, V domains shown)
# VH: B1 VH
# VL: B1 VL with R23G, N54S, K55N, I69L, D71G
# notes: also called HC2+LC2
# B30: huSP34.6.1 Fab-HF (Fab, V domains shown)
# VH: B1 VH with A64D, D76N, S80T, K89R, T90A
# VL: B1 VL
# notes: also called HC6+LC1
# B31: huSP34.7.5 Fab-HF (Fab, V domains shown)
# VH: B1 VH with T31D, I51T, M95V
# VL: B6 VL with P7E, G59W, V60T, S69L, I77L
# notes: also called HC7+LC5
# B32: huSP34.3.2 Fab-HF (Fab, V domains shown)
# VH: B1 VH with S30N, A64D, K89R, M95V, N106H, V114Y
# VL: B1 VL with R23G, N54S, K55N, I69L, D71G
# notes: also called HC3+LC2
# B33: huSP34.9.4 Fab-HF (Fab, V domains shown)
# VH: B1 VH with T31D, I51T, N57S, M95V
# VL: B1 VL with R23G, N33H, N54S, I69L, D71G, N96A
# notes: also called HC9+LC4
# B34: huSP34.4.5 Fab-HF (Fab, V domains shown)
# VH: B1 VH with K89R, M95V, N106H
# VL: B6 VL with P7E, G59W, V60T, S69L, I77L
# notes: also called HC4+LC5
# B35: huSP34.8.5 Fab-HF (Fab, V domains shown)
# VH: B1 VH with T31D, I51T, M95V, N106H
# VL: B6 VL with P7E, G59W, V60T, S69L, I77L
# notes: also called HC8+LC5
# B36: mSP34 Fab-HF (Fab, V domains shown)
# VH: EVKLLESGGGLVQPKGSLKLSCAASGFTFNTYAMNWVRQAPGKGLEWVARIRSKYNNYATYYADSVKDRFTISRDDSQSILYLQMNNLKTEDTAMYYCVRHGNFGNSYVSWFAYWGQGTLVTVSA
# VL: QAVVTQESALTTSPGETVTLTCRSSTGAVTTSNYANWVQEKPDHLFTGLIGGTNKRAPGVPARFSGSLIGDKAALTITGAQTEDEAIYFCALWYSNLWVFGGGTKLTVLG
# notes: also called mSP34 chimeric Fab; mSP34 human chimeric Fab
# Target: T1, biotinylated CD3 epsilon:delta heterodimer protein (Amsbio AMS.CDD-H52WO) (Homo sapiens (Human), UniProt P07766 23-126; P04234 22-105)
# T1 construct: also called CD3 heterodimer
# Assay: BLI (Octet), CD3 on SA sensor, Fab analyte;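 also: biolayer interferometry with biotinylated CD3 epsilon:delta captured on streptavidin sensors, Fab analyte at several concentrations up to 300 nM, 100 s association then 300 s dissociation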
# Procedure: The CD3 binding kinetics of the purified huSP34 Fabs were determined using OctetRed384 (Pall ForteBio, CA) biolayer interferometry (BLI). […] Streptavidin (SA) coated biosensors tips (Pall ForteBio, CA) were used to capture biotinylated CD3 epsilon: delta heterodimer and typical immobilization levels captured on the SA sensors were 1 nm which approximately translates to 300 ng/ml of captured protein. For kinetic measurements biosensors were first pre-wetted with assay buffer for 10 minutes to remove protective sucrose coating followed by the recommended regeneration conditions for standardization of the biosensor surface for the experiment. In order to load the biosensors with antigen, 300 ng/ml of biotinylated CD3 epsilon: delta heterodimer protein (Amsbio AMS.CDD-H52WO) was immobilized on the SA sensor for 900 seconds. The CD3 loaded biosensors were then blocked with 20 ug/ml biocytin (sigma) for 200 seconds and then dipped into assay buffer containing wells for 200 seconds to remove any non-specific protein or unbound CD3 heterodimer.
# CD3 loaded and biocytin blocked biosensors were then transferred into fresh assay buffer for 200 seconds to collect a baseline read. Kinetic measurements for anti-CD3 Fab and bispecific antibody binding were performed by dipping the CD3-coated biosensors into wells containing multiple concentrations of Fab or Ab (0-300 nM) for 100 seconds followed by a 300 second dissociation time by transferring the biosensors into assay buffer containing wells. The CD3 loaded sensors were then regenerated for the next kinetic measurement. Biosensors were generated by removing bound Fabs or Ab from immobilized CD3 on SA biosensors. Regeneration conditions used consisted of 3 cycles of 5 seconds of dipping the biosensors in Regeneration Buffer (10 mM Glycine HCl pH 1.5) followed by Assay Buffer (10 mM sodium phosphate pH 7.4, 140 mM Sodium Chloride, 0.005% Tween20 with 0.2% BSA).
Binder,Kd,koff,kon
B1,24.6 nM,0.00596 s⁻¹,246000 M⁻¹ s⁻¹
B2,45.2 nM,0.0144 s⁻¹,321000 M⁻¹ s⁻¹
B3,353 nM,0.0963 s⁻¹,273000 M⁻¹ s⁻¹
B4,123 nM,0.0365 s⁻¹,311000 M⁻¹ s⁻¹
B5,666 nM,0.185 s⁻¹,277000 M⁻¹ s⁻¹
B6,18.9 nM,0.00482 s⁻¹,266000 M⁻¹ s⁻¹
B7,417 nM,0.0779 s⁻¹,187000 M⁻¹ s⁻¹
B8,372 nM,0.0855 s⁻¹,235000 M⁻¹ s⁻¹
B9,498 nM,0.155 s⁻¹,318000 M⁻¹ s⁻¹
B10,305 nM,0.163 s⁻¹,561000 M⁻¹ s⁻¹
B11,3440 nM,0.0982 s⁻¹,172000 M⁻¹ s⁻¹
B12,30.6 nM,0.0107 s⁻¹,351000 M⁻¹ s⁻¹
B13,570 nM,0.202 s⁻¹,359000 M⁻¹ s⁻¹
B14,4180 nM,0.424 s⁻¹,265000 M⁻¹ s⁻¹
B15,85.8 nM,0.0246 s⁻¹,287000 M⁻¹ s⁻¹
B16,14.7 nM,0.00366 s⁻¹,252000 M⁻¹ s⁻¹
B17,497 nM,0.213 s⁻¹,429000 M⁻¹ s⁻¹
B18,19.8 nM,0.00723 s⁻¹,396000 M⁻¹ s⁻¹

Binder,Kd,koff,kon
B19,1200 nM,0.109 s⁻¹,90800 M⁻¹ s⁻¹
B20,761 nM,0.145 s⁻¹,192000 M⁻¹ s⁻¹
B21,443 nM,0.0823 s⁻¹,186000 M⁻¹ s⁻¹
B22,68.5 nM,0.0177 s⁻¹,260000 M⁻¹ s⁻¹
B23,162 nM,0.0408 s⁻¹,251000 M⁻¹ s⁻¹
B24,22.7 nM,0.0101 s⁻¹,451000 M⁻¹ s⁻¹
B25,351 nM,0.0499 s⁻¹,144000 M⁻¹ s⁻¹
B26,99.4 nM,0.0335 s⁻¹,398000 M⁻¹ s⁻¹
B27,375 nM,0.138 s⁻¹,367000 M⁻¹ s⁻¹
B28,159 nM,0.0436 s⁻¹,274000 M⁻¹ s⁻¹
B29,26.4 nM,0.0141 s⁻¹,609000 M⁻¹ s⁻¹
B30,53.9 nM,0.0199 s⁻¹,478000 M⁻¹ s⁻¹
B31,1460 nM,0.848 s⁻¹,307000 M⁻¹ s⁻¹
B32,25.4 nM,0.00952 s⁻¹,381000 M⁻¹ s⁻¹
B33,6120 nM,0.25 s⁻¹,40900 M⁻¹ s⁻¹
B34,211 nM,0.0506 s⁻¹,241000 M⁻¹ s⁻¹
B35,234 nM,0.219 s⁻¹,958000 M⁻¹ s⁻¹
B36,9.6 nM,0.0025 s⁻¹,262000 M⁻¹ s⁻¹
